From publication PMC11750923, “High-affinity ssDNA aptamer and chemiluminescent aptasensor for TIMP-1 detection in human serum”

Target: TIMP-1 (tissue inhibitor of metalloproteinases 1) (human, UniProt P01033 24-207)
Assay: BLI; DPBS + 0.025% Tween 20; kon 1.30e6 M-1 s-1, koff 5.36e-4 s-1; 1:1 with mass transport; DPBS (138 mM NaCl, 2.67 mM KCl, 8.1 mM Na2HPO4, 1.47 mM KH2PO4, 1 mM CaCl2, 0.5 mM MgCl2); BLI with 0.025% Tween 20; pH and temperature not stated
Details: protein: commercial; tags: His; label: biotin (BLI); hairpin

Sequence of TIMP-1 (tissue inhibitor of metalloproteinases 1) (P01033 24-207): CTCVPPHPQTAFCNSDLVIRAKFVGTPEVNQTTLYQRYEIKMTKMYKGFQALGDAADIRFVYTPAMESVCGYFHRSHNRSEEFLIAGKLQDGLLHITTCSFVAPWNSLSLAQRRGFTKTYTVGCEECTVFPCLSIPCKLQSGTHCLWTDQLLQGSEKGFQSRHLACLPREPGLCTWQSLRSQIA

B1: Apt-4 (ssDNA)
DNA: CACGCATAGCGCCCCAACCCCAGTCGATGAAATTGCGTCGCGGGTGCCTATGCGTG
- Kd: 0.41 nM
